Laboratory results published in patent publication US10618965 (dated 2020).
Numbering of substitutions follows the chain as printed. Where two headings read alike, the source gives them in different places.

T1: human IL-6 receptor (human)
T1 chain: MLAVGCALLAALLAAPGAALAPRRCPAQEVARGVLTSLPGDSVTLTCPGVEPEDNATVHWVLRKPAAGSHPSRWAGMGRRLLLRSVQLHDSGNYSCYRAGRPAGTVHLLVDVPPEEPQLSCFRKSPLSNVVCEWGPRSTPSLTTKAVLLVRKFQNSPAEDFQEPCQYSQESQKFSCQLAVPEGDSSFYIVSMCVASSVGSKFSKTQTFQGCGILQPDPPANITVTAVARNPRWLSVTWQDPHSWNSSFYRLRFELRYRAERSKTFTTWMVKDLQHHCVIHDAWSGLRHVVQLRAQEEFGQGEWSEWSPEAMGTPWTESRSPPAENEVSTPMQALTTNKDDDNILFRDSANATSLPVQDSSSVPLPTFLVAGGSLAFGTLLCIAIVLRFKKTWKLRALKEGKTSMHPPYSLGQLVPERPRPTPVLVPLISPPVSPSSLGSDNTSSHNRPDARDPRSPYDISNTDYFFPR

T2: mouse FcRn (mouse, UniProt Q61559)
T2 chain 1: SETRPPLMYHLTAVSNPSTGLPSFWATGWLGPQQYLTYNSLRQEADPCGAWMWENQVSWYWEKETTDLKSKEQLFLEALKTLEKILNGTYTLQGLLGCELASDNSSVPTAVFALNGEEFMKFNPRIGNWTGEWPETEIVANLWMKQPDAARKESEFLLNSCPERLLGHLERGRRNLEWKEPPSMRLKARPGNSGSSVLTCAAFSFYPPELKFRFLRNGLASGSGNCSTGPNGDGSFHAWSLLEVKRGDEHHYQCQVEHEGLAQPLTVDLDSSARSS
T2 chain 2: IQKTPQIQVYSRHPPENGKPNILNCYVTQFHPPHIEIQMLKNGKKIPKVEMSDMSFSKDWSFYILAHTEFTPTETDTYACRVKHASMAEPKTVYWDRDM

B1: FH4-IgG1 (antibody, V domains shown)
VH: QVQLVQSGAEVKKPGSSVKVSCKASGGTFSSYAISWVRQAPGQGLEWMGGIIPIFGTANYAQKFQGRVTITADESTSTAYMELSSLRSEDTAVYYCARERDYYDSSGYYDAFDIWGQGTMVTVSS
VL: ETTVTQSPSFLSASVGDRVTITCITTTDIDDDMNWFQQEPGKAPKLLISEGNILRPGVPSRFSSSGYGTDFTLTISKLQPEDFATYYCLQSDNLPFTFGQGTKLEIKR
B2: mIgG1 (antibody)
chain 1: DVQLQESGPVLVKPSQSLSLTCTVTGYSITSDHAWSWIRQFPGNKLEWMGYISYSGITTYNPSLKSRISITRDTSKNQFFLQLNSVTTGDTSTYYCARSLARTTAMDYWGQGTSVTVSSAKTTPPSVYPLAPGSAAQTNSMVTLGCLVKGYFPEPVTVTWNSGSLSSGVHTFPAVLQSDLYTLSSSVTVPSSTWPSETVTCNVAHPASSTKVDKKIVPRDCGCKPCICTVPEVSSVFIFPPKPKDVLTITLTPKVTCVVVDISKDDPEVQFSWFVDDVEVHTAQTQPREEQFNSTFRSVSELPIMHQDWLNGKEFKCRVNSAAFPAPIEKTISKTKGRPKAPQVYTIPPPKEQMAKDKVSLTCMITDFFPEDITVEWQWNGQPAENYKNTQPIMDTDGSYFVYSKLNVQKSNWEAGNTFTCSVLHEGLHNHHTEKSLSHSPGK
chain 2: not shown
B3: IgG2 (antibody)
chain 1: QVQLQESGPGLVKPSETLSLTCAVSGHSISHDHAWSWVRQPPGEGLEWIGFISYSGITNYNPSLQGRVTISRDNSKNTLYLQMNSLRAEDTAVYYCARSLARTTAMDYWGEGTLVTVSSASTKGPSVFPLAPCSRSTSESTAALGCLVKDYFPEPVTVSWNSGALTSGVHTFPAVLQSSGLYSLSSVVTVPSSNFGTQTYTCNVDHKPSNTKVDKTVERKCCVECPPCPAPPVAGPSVFLFPPKPKDTLMISRTPEVTCVVVDVSHEDPEVQFNWYVDGVEVHNAKTKPREEQFNSTFRVVSVLTVVHQDWLNGKEYKCKVSNKGLPAPIEKTISKTKGQPREPQVYTLPPSREEMTKNQVSLTCLVKGFYPSDIAVEWESNGQPENNYKTTPPMLDSDGSFFLYSKLTVDKSRWQQGNVFSCSVMHEALHNHYTQKSLSLSP
chain 2: not shown
B4: IgG2-F939 (antibody)
chain 1: B3 chain 1 with A234R, S237K, M250Y, N432Y, Y434V
chain 2: not shown
B5: IgG4-F890 (antibody)
chain 1: QVQLQESGPGLVKPSETLSLTCAVSGHSISHDHAWSWVRQPPGEGLEWIGFISYSGITNYNPSLQGRVTISRDNSKNTLYLQMNSLRAEDTAVYYCARSLARTTAMDYWGEGTLVTVSSASTKGPSVFPLAPCSRSTSESTAALGCLVKDYFPEPVTVSWNSGALTSGVHTFPAVLQSSGLYSLSSVVTVPSSSLGTKTYTCNVDHKPSNTKVDKRVESKYGPPCPPCPAPEFLGGPSVFLFPPKPKDTLYISRTPEVTCVVVDVSQEDPEVQFNWYVDGVEVHNAKTKPREEQFNSTYRVVSVLTVLHQDWLNGKEYKCKVSNKGLPSSIEKTISKAKGQPREPQVYTLPPSQEEMTKNQVSLTCLVKGFYPSDIAVEWESNGQPENNYKTTPPVLDSDGSFFLYSRLTVDKSRWQEGNVFSCSVMHEALHYHVTQKSLSLSL
chain 2: not shown
B6: 6RL#9-IgG1 (antibody, V domains shown)
VH: QVQLVQSGAEVKKPGASVKVSCKASGYTFTSYYMHWVRQAPGQGLEWMGIINPSGGSTSYAQKFQGRVTMTRDTSTSTVYMELSSLRSEDTAVYYCARDDPGGGEYYFDYWGQGTLVTVSS
VL: QSVLTQPPSVSGAPGQRVTISCTGSRSNMGAGYDVHWYQLLPGAAPKLLISHNTHRPSGVPDRFSGSKSGASASLAITGLQAEDEADYYCQSHDSSLSAVVFGGGTKLTVLS

Tests used:
human IL-6 receptor [1] = biological target: T1, human IL-6 receptor; assay: SPR, 3 uM CaCl2, 37C
human IL-6 receptor [2] = biological target: T1, human IL-6 receptor; assay: SPR, 3 uM CaCl2, 37C
mouse FcRn = biological target: T2, mouse FcRn; assay: SPR, pH 7.0
[3] = biological target: human FcRn (with beta2-microglobulin) (human); assay: SPR, pH 7.0
[4] = biological target: human FcRn (with beta2-microglobulin) (human); assay: SPR, pH 7.0; remark: listed apart in the source

Sequence of human FcRn (with beta2-microglobulin) (human) (chain, as listed by the source, chain 1 of 2): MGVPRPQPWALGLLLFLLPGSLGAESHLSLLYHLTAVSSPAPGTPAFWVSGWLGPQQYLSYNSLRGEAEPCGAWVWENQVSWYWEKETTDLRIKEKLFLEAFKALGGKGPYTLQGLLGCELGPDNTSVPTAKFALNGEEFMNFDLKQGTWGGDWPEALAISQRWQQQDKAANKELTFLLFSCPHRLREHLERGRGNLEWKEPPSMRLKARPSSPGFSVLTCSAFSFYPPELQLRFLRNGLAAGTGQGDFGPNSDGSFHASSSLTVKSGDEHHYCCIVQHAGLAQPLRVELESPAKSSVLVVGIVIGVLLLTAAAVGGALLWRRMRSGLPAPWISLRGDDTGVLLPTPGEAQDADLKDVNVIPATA
Sequence of human FcRn (with beta2-microglobulin) (human) (chain, as listed by the source, chain 2 of 2): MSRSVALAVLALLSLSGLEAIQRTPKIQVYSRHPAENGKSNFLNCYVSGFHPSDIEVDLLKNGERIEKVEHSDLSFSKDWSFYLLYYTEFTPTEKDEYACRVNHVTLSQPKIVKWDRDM

Binder | Kd (human IL-6 receptor [1]) [µM] | Kd (human IL-6 receptor [2]) [µM] | Kd [4] [nM] | also measured
B1 | ~34 | > 34 | – | –
B2 | – | – | – | binding result (mouse FcRn): no binding
B3 | – | – | – | binding result [3]: no binding
B4 | – | – | 140 | –
B5 | – | – | 140 | –
B6 | ~31 | > 31 | – | –
